Test: soluble on expression in E. coli; label from the status in PepcDB or PDB records

Row | Sequence | soluble on expression in E. coli
1 | MKEVKRPVVSVVVPVYNTEPFLAECLHSLEKQTLTDIEIILVNDGSTDNSGRLLREYAGKDARFVYVEQENQGLSAARNTGMEHASGHYLAFLDSDDWLAENALQVLCAIAAKTRTDIVSGNTLAVHADGQVQSWERRGRELFATGTVVSGSTYFSRVMDCRCYVPMVYNYLYRRDFIEQNGFRFEPGLVHEDELWTPQVLTTAQKITVADIDFYYYRQREGSIMTATAAGRRIASIQLIIEKLLEYSRKHLFEKKYREAKEALYVRLLQIYSTACTLHPDGTYTTLYDRAGEMLRVCEELRRQESLGRWYSEEILNRMKLYYDRLQTMEG | not soluble
2 | MSNRNLRSSTNSDLAEGQHQTPSSDSSGHGEDQPQASPGPNKKSHTPKKNISKGAVLHEKPMTVMVLTATEPFNYKEGKENMFHATVATESQYYRVKVFNMDLKEKFTENKFITISKYFNSSGILEINETATVSEAAPNQMFEVPKNIIRSAKETLKISKIKELDSGTLIYGVFAVEKKKVNDKSITFKIKDNEDNIKVVWDKEQHNINYEKGDKLQLFSFHLRKGNGKPILHSGNHSFIKGEKLLKESFEGDGYHKGPKQVVALKATKLFTYDSIKSKKMFHATVATDTEFFRVMVFEENLEKKFIPGNTIALSDYFGMYGSLAIHEYSSVSEVKSQNKEDSSSSDERPIEHLKICDLHLQTKERLVDGEFKVYRKSSGNNCICYGIWDDTGAMKVVVSGQLTSVNCEIGNTIRLVCFELTSNADEWFLRATRYSYMEVIMPEK | soluble
3 | MGSDKIHHHHHHMNQDGASPLSETAQPFLQVVGVHKRFTGVHALRGVSLTFERGQIYHLLGENGCGKSTLIKIISGAQPPDQGELVIEGVRHAQLSPLESLAAGIETVYQDLSLLPNMSVAENVALTAELAAHAGKLARTFDRRALARTAARALEAVGLPGSADFQATLIEQLPLATRQLVAIARAIASEAKFVIMDEPTTSLTQKEVDNLIAVLANLRAHGVTVLFVSHKLDECYAIGGEVIVLRDGQKMAQGPIAQFTKARLSELMTGRELSNERYREAGHAQDVVLELRGLTRAGQFSDVSLSLHGGEILGVTGLLDSGRNELARALAGVAPAHAGEVLLDGHAIALRTPSDAKRNRIGYVPEDRLNEGLFLDKPIRDNLITAMISSLRDRFGQIDRARAQALAQQTVKELQIATAGIDKPVQSLSGGNQQRVLIGRWLAIDPRVLILHGPTVGVDVGSRDVIYRIMQRLSQRGIGIILISDDLPELLQNCDRILMMKKGRVASEYRADALDEADLYHALLSEAA | not soluble
4 | MGSDKIHHHHHHMIIDAHTHVWPEKIAAKALAGRVPGMEAKFDGTVAGLKRSMDAAGIDHCVAFGIADHARHVERANEFISSQRSDWLTPFGTIHLDLSVEENMEILQRHGIKGVKLHPLFQRFRLDDRRLWALFDAFGSDIAVITHVGFGGQGSANENSTPQMIVDIARNFPKLRFMACHFGGFRRLDEAEKYVVGLPIVLETSWPPGLAEIPTERLRAIVHRHGPDRIIFGSDWPMVDPADEIEAIRRLELHPDDEAAILGGNLARILGMES | not soluble
5 | MNYAGSEKRVAIEEKKKIVEFLWKRNEEQEIVGHIYIGRIVRTIAGMNAAFVNIGLEKHAYLSYDDVPSAYRIHEGQAVLVQVVKEAIDTKGPKLTANIEFTGKYVVYMPYDEMRAVSRKIKNNKRRQQLLQIEVEGTGGYIFRSASEKGEIEEIQAEMQRLQQLYEELKRKEEQGKAPLLLHRPATFLDRVFQENPIETIEKVVVDTRSIVKELEEKVGKEKVSFYNEKSSMFNHFGIEREIEKALQKIVWLPNGAYLIVEQMETMTVIDVNTGKFTGKQNLQDTVLRTNELAAEEIARQLRLRDIGGMILIDFINMKRREDKEKVRECLVAAMQNDRTYTRVLGFTELGILEMTRKRKKHSLRDVLLEECAPCKATGYVMSYETIAYELERELLTYGNIEDEAVLISAPKELQKQFLQKELQKNIPFEIYFKDDMIEKYAIIRFGSKKEIVERKNS | not soluble
6 | MIRKDDILKMTEKGISVFRYYLPVDFKVGKNFLNPFYKDTKASCNIYYERKAGVFKMKDFGNEDYSGDCFELVGRLNGLSCKEPKEFVEIMEMINRDLHLGLSAHEEYHVSHSKVPQKSEVVSEEPKAKSVRPYTVVQKPFTAAELAFWGKSGIGENVLKAYRTVSLKKFSSENQERKPFSCMTSVDEPMFGYMGKQHIKVYRPCSQMRFLYAGDFGDNYCFGLEQLPAKGDLLFITGGEKDVMSLAAHGFHAICFNSETAFIPAAVIHRLSFRFKHIILLYDVDSTGLKSSAKREEELKEYGIKRLLLPLAGTKTEKDVSDYFMLGNSREDLIKLFLDYLETLYSETMSALKSCEVDFNNPPPIAQMIVSVNDVPLGTQGNLLCITGGEGTGKSNYVAALIAGAIRPTGTDVDALGVTLHENSRNKAVLFYDTEQSEVQLYKNISNLLRRCGREAMPEWFKAYCLTGMSRKERLLSIIQSLDKYHYQYGGVHLVVIDGIADLIKCANDEAESIAVVEELYRLAGIYKTCIVTVLHFIPNGLKLRGHLGSELQRKAAAILSIEKDSDPAISVVKALKVRDGSPLDVPIMQFSWDKEKAMHVYLGEKPKEEKDKRKEDELVAVAKEVFSRRRFVTYVELAEEIQSILEVKERTAKSYIRFMREKEIILKSSDNQSYYVVGNF | not soluble
7 | MSLKVDSFSLPLSSPLATARETISQRSGFVVRYDHRGETGVGEATPLPGWTESLDDCQRGLNDAATVAAGGGHTDVLLSLDAASVPAARHGFATALLDADARADGVPLYQWFDSERHCNRVPVNATVGDGSPAETADAVERAVEAGYDCCKMKVGKRTVDEDVARVRTVRERVGDDVTLRADANGAWSRDRAQEAFDRLAPLDVAYVEQPLPADDLTGHAGLRGNGVGVALDESLVDRRVDSVLDADAADVLILKPMVLGGPGNAHTLALRAREQGVEPVVTTTIDAVVARLAALHVAAAIPDVAACGLATGDRLAADLAPDPTTVTDGAMSVPQSTGLGIDPTEVGTDAEGHHHHHH | soluble
8 | MSISQNNFLTMFPVTYTFENGVYSTIINQNTIQTPIPNPIQHHIQNHIQTSIPNTNLLLENVQTDVQKLMVPLIDQQFHIPTSTPLQLAPIPTQIQSQLQPQISQIPIHNQPQIQIQSQVQPQLPTQSQPKPSSKASLDTSSNAFKKYVNPFAPEATVPLPVELEDQYGPYSSSVWKRNERERCRVRNVNDGYERLRKHLPVHFDEKRISKVDTLRLAIRYIKHLDNLLRSELHQYNCKCFNGFQEESEGNILIDISTFNFNSSNNAM | not soluble
9 | MGKSLTEIAEELKGNDKKVQLIYAFNGTGKTRLSREFKNLIAPTSSEEPDGEPTRRKFLYYNAFTEDLFFWDNDLLANEAPRLKIQKNSFTDWLLRDNGLDGAVIKNFQYYTDDKLTPDFNDDFSEIAFYFARGNDEQIENIKISKGEESNFIWSIFYVLIRQVIAELNIPEDSEEGRSTDQFDDLEYIFIDDPVSSLDENHLIQQAVDLADLIKLSKPRLKFIITTHNVLFYNVLYNELKKLEKEKKSYLLLKNEDGSFDILEKQGDSNKSFSYHLHLKGVIEKAIENQQVERFHFMLLRNLYEKTANFLGYKQRSDILPEDSRRNYFQRIINFTSHSTLSNEAFAEPTPQEQETVKLLLQHLLDNYNFFQDDEQRDKP | not soluble
10 | MGSKAKKRVLLPTRPAPPTVEQILEDVRGAPAEDPVFTILAPEDPPVPFRMMEDAEAPGEQLYQQSRAYVAANQRLQQAGNVLRQRCELLQRAGEDLEREVAQMKQAALPAAEAASSG | soluble
11 | MHYQPKQDLLQNRIILVTGASDGIGREAALTYARYGATVILLGRNEEKLRRVAQHIADEQHVQPQWFTLDLLTCTAEECRQVADRIAAHYPRLDGVLHNAGLLGEIGPMSEQDPQIWQDVMQVNVNATFMLTQALLPLLLKSDAGSLVFTSSSVGRQGRANWGAYATSKFATEGMMQVLADEYQNRSLRVNCINPGGTRTSMRASAFPTEDPQKLKTPADIMPLYLWLMGDDSRRKTGMTFDAQPGRKPGIAQ | not soluble
12 | MNLDQELAEIRASSSDHTNYFYSSERREHMFDKVLTPSDVGKLNRLVIPKQHAENFFPLEDNQNGTVLDFQDKNGKMWRFRYSYWNSSQSYVMTKGWSRFVKEKKLFAGDTVSFYRGYIPDDNAQPERRRKIMFIDWRPRAEINFVHNINNHNFVFGSPTYPTARFYPVTPEYSMPYRSFPPFYQNQFQEREYLGYGYGRVVNGNGVRYYAGSPLDQHHQWNLGRSEPLVYDSVPVFPAGRVPPSAPPQPSTTKKLRLFGVDVEESSSSGDTRGEMGVAGYSSSSPVVIRDDDQSFWRSPRGEMASSSSAMQLSDDEEYKRKGKSLEL | soluble
13 | MQGYHHPLATNHQTQYGTVGQALHIARKLLPFIPDNAGILIVPCCRGGSAFTAGSEGTYSERHGASHDACRWGTDTPLYQDLVSRTRAALAKNPQNKFLGVCWMQGEFDLMTSDYASHPQHFNHMVEAFRRDLKQYHSQLNNITDAPWFCGDTTWYWKENFPHSYEAIYGNYQNNVLANIIFVDFQQQGERGLTNAPDEDPDDLSTGYYGSAYRSPENWTTALRSSHFSTAARRGIISDRFVEAILQFWRER | not soluble
14 | MSSGYSSLEEDEDFFFTARTSFFRRAPPGKSRSGQPDVEKEKETHNYLSKEEIKEKVHKYNSAVTDKLKMTLNSNGIYTGFIKVQMELCKPAQPSPEPSSGGCMNTLHISSTNTVGEVIEALLRKFLVTESPTKFALYKRCHREDQVYACKLSDREHPLYLRLVAGPRTDTLSFVLREHEIGEWEAFSLPELQNFLRILDKEEDEQLQSLKRRYTAYRQKLEEALGEVWKPG | not soluble
15 | SLETFHFNYTLISICIYLYIYDGSFISLSEDHKPYNKKEKERIYKIGGFVENGRILGYIGVSRSFGDKNYKIKSDCPYNPHETMISCIPDIKIFYANCDDILFLGCDGLFEMLSWNDVAKFTYDCMNRHTLSDAVINILDYALLSGSKDNITIQIIKFFNE | soluble
16 | TGPQGPPGPAGPKGAKGETGPQGPPGPAGPKGAKGDSGVPLSYEFTQKVESSNGTAVFGLLSNGFVEVRITGSYSSDVFNIPYNYRPLKAGTQMALFSTSGVGVAKVGEDKITIQGYSRNAQCSGTVLYPHREF | not soluble
17 | MGSDKIHHHHHHMLIRLGYEIAIECAEATPVISLLEIHKDRQADIKRQTRVLTSPSVPTKLYHDLHGNGCRRFTAPAGTFRILYDAVIEDSGETDEVNTLAREVPVAELPDEVLFYLLGSRYCETDHLSSLAWQLFGHLPSGWARVQAIVDYVHNRLSFGYGYARSTRTAAQAHEERVGVCRDFAHLAITLCRCMNIPARYVNGYLGDIGVPIDPAPMDFSAWMEVFLDGKWYTFDPRHNQPRTGRIVIARGRDATDVPLLHSFGPHRLCLFKVWTYEQEGRSFNPPHRGIDRTVSAQMLA | not soluble
18 | MLKREMNIADYDAELWQAMEQEKVRQEEHIELIASENYTSPRVMQAQGSQLTNKYAEGYPGKRYYGGCEYVDVVEQLAIDRAKELFGADYANVQPHSGSQANFAVYTALLQPGDTVLGMNLAQGGHLTHGSPVNFSGKLYNIVPYGIDESGKIDYDEMAKLAKEHKPKMIIGGFSAYSGVVDWAKMREIADSIGAYLFVDMAHVAGLIAAGVYPNPVPHAHVVTTTTHKTLAGPRGGLILAKGGDEELYKKLNSAVFPSAQGGPLMHVIAGKAVALKEAMEPEFKVYQQQVAKNAKAMVEVFLNRGYKVVSGGTENHLFLLDLVDKNLTGKEADAALGRANITVNKNSVPNDPKSPFVTSGIRIGSPAVTRRGFKEAEVKELAGWMCDVLDNINDEATIERVKAKVLDICARFPVYA | not soluble
19 | MSLAGHQAMHYSRILPNIWLGSCPRQVEHVTIKLKHELGITAVMNFQTEWDIVQNSSGCNRYPEPMTPDTMIKLYREEGLAYIWMPTPDMSTEGRVQMLPQAVCLLHALLEKGHIVYVHCNAGVGRSTAAVCGWLQYVMGWNLRKVQYFLMAKRPAVYIDEEALARAQEDFFQKFGKVRSEGHHHHHH | soluble
